Measured values published in patent publication EP1298214A2, “Plant thioesterases” (Calgene LLC, priority 1990, dated 1991).

Experiments:
[1] = target: T1, Bay C12-preferring acyl-ACP thioesterase (Umbellularia californica, UniProt Q41635); assay: Substrate hydrolysis (ACP versus CoA) by peak gradient-eluted fraction of the ACP column; assay type: biochemical; design: The cotyledons from such seeds are dissected from the other seed parts and stored frozen at -70°; This comprises the source tissue for enzyme extraction; from tissue; host or cells: immature seed cotyledons of Umbellularia californica; details: cpm of ether-extractable product
T1 sequence (Q41635 84-382): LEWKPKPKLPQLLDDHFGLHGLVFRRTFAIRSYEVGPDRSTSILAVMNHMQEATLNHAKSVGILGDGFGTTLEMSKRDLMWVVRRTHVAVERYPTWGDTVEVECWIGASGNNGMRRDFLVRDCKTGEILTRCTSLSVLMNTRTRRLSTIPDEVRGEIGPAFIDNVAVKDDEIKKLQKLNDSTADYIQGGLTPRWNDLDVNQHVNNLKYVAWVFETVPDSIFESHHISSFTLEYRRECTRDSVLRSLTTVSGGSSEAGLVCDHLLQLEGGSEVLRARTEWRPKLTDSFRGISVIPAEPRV
Procedure: (§1) To assay for C12 thioesterase activity the following mixture is incubated at 30° for 30 min: "buffer" comprising 7mM KH2PO4-KOH pH 8, 20% v/v glycerol, 1mM dithiothreitol (DTT), 0.1% v/v Triton X100; sample to be tested for activity in the same or similar buffer as the "extraction buffer" described in Example 2; and 5µl of ^14C-radiolabeled lauroyl-ACP substrate for a total volume of 100µl and final lauroyl-ACP concentration of 0.5µM. Lauroyl-ACP substrate is prepared according to the method of Rock et al (Methods in Enzymology (1981) 72:397-403), using ACP prepared from Escherichia coli by the method of Rock and Cronan (Methods in Enzymology (1981) 71:341-351). The laurate is radiolabeled in the carboxylate group at a specific radioactivity of 50-60µCi/µmol.
(§2) The reaction is stopped by adding 0.5ml cold (0°) 10% v/v acetic acid. […] After settling for a few minutes the upper ether layer is transferred to 5ml scintillation fluid for determination of radioactivity by liquid scintillation spectrometry. Additional ether extractions may be performed to recover remaining traces of the reaction product for more accurate quantitation of the enzyme activity if desired. The amount of ether-extracted radioactivity is a direct measure of C12-preferring acyl-ACP thioesterase activity, provided the amount of enzyme is not sufficient to hydrolyze more than about 25% of the substrate. […]

[2] = system: material which fails to bind the ACP column (Lauroyl-CoA hydrolysis activity); assay: Substrate hydrolysis (ACP versus CoA) by peak unbound fraction of the ACP column; assay type: biochemical, Umbellularia californica; details: Flow-through (nonbinding) fraction; cpm of ether-extractable product
Procedure: as §1, §2

lauroyl-ACP [12:0-ACP]
Activity on Substrate [1]: 2772 cpm | Activity on Substrate [2]: 300 cpm
